Reference: the supplement of paper PMC6757056
± gives the standard deviation of the averaged measurements.

B1: library; a variant is named by its letters at N, in order (parent)
chain: GCUGUCACCGGAAUACCAGCAUCGUCUUGAUGCCCUUGGAAGUCCGGUCUGAUGAGUCCNNNNNGGACGAAACAGC

What was measured:
theophylline [1] = variants of: B1; test: FACS-Seq fitted mean relative fluorescence mCherry/BFP without ligand (log10 relative fluorescence); higher = higher reporter protein expression; conditions: HEK293T, ligand present: no
In short: (§1)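 After lentiviral transduction, HEK293T library cells bearing an mCherry ribozyme-switch reporter and an EF1α-BFP marker were enriched. They were then held for 48 h with or without ligand and sorted by mCherry/BFP into 6 bins, and each bin's genomic DNA was PCR-amplified, barcoded and MiSeq-sequenced. Fluorescence is expressed as a normalized fitted mean: the normal mean of log10(mCherry/BFP) bin counts, scaled to five spiked-in control ribozymes.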

theophylline [2] = variants of: B1; test: normalized RNA/DNA level with ligand (relative to sTRSVctl = 100) (log10 (% of sTRSVctl)); higher = less ribozyme self-cleavage, higher mRNA level; conditions: ligand concentration (+) RNA-Seq: 5 mM, HEK293T, reporter: mCherry (pCS4076), ligand present: yes
In short: (§2)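 Only sequences with at least 100 DNA reads were analyzed, from HEK293T cells transfected with 4 µg per 6-well well of ribozyme switch library plasmids 72 h before RNA extraction with EDTA. Any ligand was added 1 h before transfection. RNA level was defined as RNA over DNA reads, normalized to a spiked-in non-cleaving sequence or to the top sequences, then scaled and log-transformed. The top set was 25 sequences, and the scaling was ×100 followed by log10.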

theophylline [3] = variants of: B1; test: normalized RNA/DNA level without ligand (relative to sTRSVctl = 100) (log10 (% of sTRSVctl)); higher = less ribozyme self-cleavage, higher mRNA level; conditions: HEK293T, reporter: mCherry (pCS4076), ligand present: no
In short: as §2

theophylline [4] = variants of: B1; test: FACS-Seq fitted mean relative fluorescence mCherry/BFP with ligand (log10 relative fluorescence); ligand concentration (+) FACS-Seq: 1 mM; higher = higher reporter protein expression; conditions: HEK293T, ligand present: yes
In short: as §1

Row | Variant | FACS-Seq fitted mean (log10) (theophylline [1]) | normalized RNA/DNA level with ligand (log10) (theophylline [2]) | normalized RNA/DNA level without ligand (log10) (theophylline [3]) | FACS-Seq fitted mean (log10) (theophylline [4])
1 | GCGAU | 0.428 ± 0.072 | 1.96 ± 0.025 | 1.7 ± 0.18 | 0.549 ± 0.1
2 | GCACU | 1.01 ± 0.018 | 1.966 ± 0.019 | 1.86 ± 0.022 | 1 ± 0.083
3 | UAUUG | 0.752 ± 0.025 | 2.07 ± 0.029 | 1.921 ± 0.017 | 0.768 ± 0.032
4 | UAUUC | 0.679 ± 0.022 | 1.99 ± 0.089 | 1.94 ± 0.11 | 0.6994 ± 0.0049
5 | UAUUU | 0.892 ± 0.098 | 1.995 ± 0.0037 | 1.94 ± 0.032 | 0.906 ± 0.048
6 | UCCAC | 0.712 ± 0.067 | 2.05 ± 0.04 | 1.95 ± 0.12 | 0.737 ± 0.036
7 | UCCAG | 0.956 ± 0.042 | 2.01 ± 0.07 | 1.92 ± 0.1 | 1.07 ± 0.13
8 | UCCAU | 1.01 ± 0.016 | 2.012 ± 0.019 | 1.96 ± 0.054 | 1.05 ± 0.11
9 | UCCAA | 0.973 ± 0.14 | 2.04 ± 0.078 | 1.84 ± 0.09 | 0.912 ± 0.053
10 | UCACC | -0.0671 ± 0.15 | 1.92 ± 0.022 | 1.93 ± 0.053 | 0.0211 ± 0.046
11 | UCACU | 0.354 ± 0.029 | 2.003 ± 0.0094 | 1.85 ± 0.092 | 0.438 ± 0.015
12 | UCACA | 0.565 ± 0.12 | 2 ± 0.027 | 1.48 ± 0.097 | 0.896 ± 0.07
13 | UCAGA | 0.377 ± 0.081 | 1.96 ± 0.099 | 1.55 ± 0.13 | 0.6274 ± 0.0049
14 | UCAGU | 0.741 ± 0.036 | 2.011 ± 0.018 | 1.875 ± 0.018 | 0.752 ± 0.097
15 | GCAUG | 0.8295 ± 0.0081 | 1.939 ± 0.013 | 1.79 ± 0.026 | 0.966 ± 0.067
16 | GCAUU | 0.42 ± 0.1 | 1.938 ± 0.0078 | 1.792 ± 0.0054 | 0.4217 ± 0.00082
17 | GAUGG | -0.543 ± 0.056 | 2 ± 0.062 | 1.8 ± 0.022 | -0.332 ± 0.0071
18 | GAUGC | 0.964 ± 0.13 | 1.98 ± 0.029 | 1.88 ± 0.098 | 1.05 ± 0.072
